The values below come from PMC3411398, “Quaternary structures of recombinant, cellular, and serum forms of Thymidine Kinase 1 from dogs and humans” (BMC Biochemistry, 2012).

One may read the stoichiometry N as the number of molecules, sites or subunits per partner or assembly.

Where “and” joins values, the source holds several entries; their conditions need not be identical. Equal values may be shown once.

The target of series [1] is canine serum TK1 (dog (endogenous in serum)). The series is described as follows: SEC; Superose 12, 0.01 M HEPES/KOH pH 7.6, 0.15 M NH4Cl, 0.02% NaN3; sera diluted 1:1, untreated or pre-treated with 20 mM DTE; fractions read by TK1 activity and immunoaffinity capture with western blot. Background: SEC sorts molecules by how far they enter the pores of the column.
Series [2] deals with cellular (native) canine TK1 from MDCK cells (dog (endogenous in MDCK)). The series is described as follows: SEC; Superose 12, 0.01 M HEPES/KOH pH 7.6, 0.15 M NH4Cl, 0.02% NaN3; crude cell extracts (MDCK, CEM), untreated or treated with DTE before chromatography; fractions read by TK1 activity and western blot.
Series [3] deals with the molecule itself. The series is described as follows: SEC; Superose 12, 0.01 M HEPES/KOH pH 7.6, 0.15 M NH4Cl, 0.02% NaN3; sera diluted 1:1, untreated or pre-treated with 20 mM DTE; fractions read by TK1 activity and immunoaffinity capture with western blot.
Series [4] deals with the molecule itself. The series is described as follows: SEC; Superose 12, 0.01 M HEPES/KOH pH 7.6, 0.15 M NH4Cl, 0.02% NaN3; crude cell extracts (MDCK, CEM), untreated or treated with DTE before chromatography; fractions read by TK1 activity and western blot.
Series [5] concerns the molecule itself. The series is described as follows: SEC; Superose 12, 0.01 M HEPES/KOH pH 7.6, 0.15 M NH4Cl, 0.02% NaN3, no reducing agent in the buffer; 4 ug of freshly isolated recombinant TK1, untreated or pre-incubated with 20 mM DTE for 30 min on ice; fractions read by TK1 activity and western blot.

With canine serum TK1 (enzyme), in series [1], the stoichiometry N is 2 and 4.
On to “cellular (native) canine TK1 from MDCK cells (enzyme)”, for which, in series [2], the stoichiometry N was 2 and 4.

B1: human serum TK1 (enzyme, human (endogenous in serum), UniProt P04183 1-234, looked up)
chain: MSCINLPTVLPGSPSKTRGQIQVILGPMFSGKSTELMRRVRRFQIAQYKCLVIKYAKDTRYSSSFCTHDRNTMEALPACLLRDVAQEALGVAVIGIDEGQFFPDIVEFCEAMANAGKTVIVAALDGTFQRKPFGAILNLVPLAESVVKLTAVCMECFREAAYTKRLGTEKEVEVIGGADKYHSVCRLCYFKKASGQPAGPDNKENCPVPGKPGEAVAARKLFAPQQILQCSPAN
notes: thymidine kinase 1, human, serum form; polypeptide of apparent MW 25 kDa on western blot; source: endogenous, pooled sera from human patients with acute lymphocytic leukemia
With B1, the “stoichiometry N” value in series [3] was 2 and 4.

B2: cellular (native) human TK1 from CEM cells (enzyme, human (endogenous in CCRF-CEM), UniProt P04183 1-234, looked up)
chain: B1 chain
notes: thymidine kinase 1, human, endogenous in CCRF-CEM cells; 25 kDa band on western blot; also called cytosolic human TK1; source: endogenous, crude CCRF-CEM cell extract
Take B2: the “stoichiometry N” value in series [4] is 2 and 4.

B3: recombinant human thymidine kinase 1 (enzyme, UniProt P04183 1-234, looked up)
chain: B1 chain
notes: thymidine kinase 1, human, full-length cDNA; vector pEXP-5NT/TOPO; also called hTK1; human TK1
With B3, the “stoichiometry N” value in series [5] was 2 and 4.
